Measurements taken from patent US20020049180A1.

Target: GST-fusion protein containing amino acids 327-517 of KIAA0175 (human) (UniProt Q14680)
Experiment: cell-based or functional assay

An increase of phosphorylation by ATM immunoprecipitated from gamma-irradiated cells of 2 to 3 fold was found for “Ataxia telangiectasia mutated (ATM) (from UniProt Q13315 2-3056) (enzyme)” in this work.
